Like-named read-outs stand apart in the source and are kept apart here.
Key:
[1] = target: T1, LAG3 Protein, Human, Recombinant (His Tag) (Sino Biological Catalog No. 16498-H08H) (human, UniProt P18627 23-450); experiment: SPR binning on LAG3-His; competitor 18
T1 construct: Bought protein; also called hLAG3-His; LAG3-His; not shown: His tag
T1 sequence (looked up): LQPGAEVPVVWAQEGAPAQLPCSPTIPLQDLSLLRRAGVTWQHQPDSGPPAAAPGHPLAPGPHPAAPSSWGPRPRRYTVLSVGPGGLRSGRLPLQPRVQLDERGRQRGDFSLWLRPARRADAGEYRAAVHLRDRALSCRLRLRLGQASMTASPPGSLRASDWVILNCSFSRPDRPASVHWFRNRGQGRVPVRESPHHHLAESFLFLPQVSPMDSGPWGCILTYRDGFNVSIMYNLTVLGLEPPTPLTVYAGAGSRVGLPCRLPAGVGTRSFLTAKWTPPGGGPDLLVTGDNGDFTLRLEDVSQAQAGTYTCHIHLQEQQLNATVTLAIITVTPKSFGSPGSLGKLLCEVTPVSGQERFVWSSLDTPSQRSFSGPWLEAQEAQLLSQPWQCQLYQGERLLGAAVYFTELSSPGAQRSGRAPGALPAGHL
Protocol: (§1) The chip surface was regenerated after each cycle with 25 mM NaOH followed by HBS-EP wash provided in the kit.

[2] = target: T1, LAG3 Protein, Human, Recombinant (His …); experiment: SPR binning on LAG3-His; competitor 25
Protocol: as §1

[3] = target: T1, LAG3 Protein, Human, Recombinant (His …); experiment: SPR binning on LAG3-His; competitor 17
Protocol: as §1

[4] = target: T2, human LAG3 expressed on cells (human, UniProt P18627 23-525); experiment: cell-based or functional assay
T2 sequence (looked up): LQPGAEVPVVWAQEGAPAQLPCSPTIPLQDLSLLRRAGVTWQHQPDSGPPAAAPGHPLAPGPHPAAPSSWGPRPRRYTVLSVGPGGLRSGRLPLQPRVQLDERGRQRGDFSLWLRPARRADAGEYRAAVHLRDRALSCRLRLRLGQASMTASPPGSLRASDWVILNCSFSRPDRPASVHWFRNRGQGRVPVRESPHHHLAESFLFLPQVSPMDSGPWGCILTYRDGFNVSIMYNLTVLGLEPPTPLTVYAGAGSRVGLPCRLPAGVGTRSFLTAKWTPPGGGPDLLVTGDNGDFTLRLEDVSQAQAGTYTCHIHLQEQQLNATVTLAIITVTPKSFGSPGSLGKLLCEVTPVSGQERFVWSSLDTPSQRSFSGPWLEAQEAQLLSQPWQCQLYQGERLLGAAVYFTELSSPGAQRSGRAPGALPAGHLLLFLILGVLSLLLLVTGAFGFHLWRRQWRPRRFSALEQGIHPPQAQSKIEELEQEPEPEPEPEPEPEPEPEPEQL

[5] = target: T1, LAG3 Protein, Human, Recombinant (His …); experiment: SPR binning on LAG3-His; competitor 21
Protocol: as §1

[6] = target: T1, LAG3 Protein, Human, Recombinant (His …); experiment: SPR binning on LAG3-His; competitor 73
Protocol: as §1

[7] = target: T1, LAG3 Protein, Human, Recombinant (His …); experiment: SPR binning on LAG3-His; competitor BMS
Protocol: as §1

[8] = target: T1, LAG3 Protein, Human, Recombinant (His …); experiment: SPR (Biacore), sdAb captured by anti-human Fc, LAG3-His analyte
Protocol: The binding of the single domain antibodies to recombinant human LAG3 protein (rhLAG3) was examined by Biacore™ assay. […] The coating was carried out according to the manufacturer’s instructions accompanying the kit (Catalog No. BR-1008-39, GE). […] The chip surface was regenerated after each cycle with 25 mM NaOH followed by HBS-EP wash provided in the kit.

[9] = target: T2, human LAG3 expressed on cells; experiment: cell-based or functional assay; remark: listed apart in the source
[10] = target: T1, LAG3 Protein, Human, Recombinant (His …); experiment: SPR binning on LAG3-His; competitor 27
Protocol: as §1

[11] = target: T1, LAG3 Protein, Human, Recombinant (His …); experiment: SPR binning on LAG3-His; competitor 37
Protocol: as §1

[12] = target: T1, LAG3 Protein, Human, Recombinant (His …); experiment: SPR binning on LAG3-His; competitor 24
Protocol: as §1

[13] = target: T1, LAG3 Protein, Human, Recombinant (His …); experiment: SPR binning on LAG3-His; competitor 20
Protocol: as §1

[14] = target: T2, human LAG3 expressed on cells; experiment: cell-based or functional assay; remark: listed apart in the source
[15] = target: T1, LAG3 Protein, Human, Recombinant (His …); experiment: SPR binning on LAG3-His; competitor 1
Protocol: as §1

B1: sdAb No. 18 (VHH)
VHH: QVQLVESGGGLVQPGGSLRLSCAASGFTLNEHAIGWFRRAPGKEREGVSCISSSDGSTYYHDSVKGRFNMSRDDAKNSVYLQMSSLKPEDTAIYYCAAALGRDCQGGQWKTSSWGQGTQVTVSS
notes: Fc of the tested form not described; also called sdAb 18; not shown: Fc part implied by anti-human Fc capture
RU [1]: -9.1 RU
RU [2]: 274 RU
RU [3]: -14.7 RU
EC50 for IL-2 rescue, hLAG3 Jurkat T system [4]: 60.6 nM
Efficacy (IL-2 production, BMS = 100%) [4]: 51.9%
RU [5]: -11.4 RU
RU [6]: -11.1 RU
RU [7]: 26.9 RU
koff [8]: 3.69e-07 s⁻¹
kon [8]: 2.31e+06 M⁻¹ s⁻¹
IL-2, % of BMS, at 0.005080526 ug/mL [9]: 7.39%
IL-2, % of BMS, at 0.015241579 ug/mL [9]: 10.9%
IL-2, % of BMS, at 0.045724737 ug/mL [9]: 12.9%
IL-2, % of BMS, at 0.137174211 ug/mL [9]: 5.27%
IL-2, % of BMS, at 0.411522634 ug/mL [9]: 6.53%
IL-2, % of BMS, at 1.234567901 ug/mL [9]: 15.5%
IL-2, % of BMS, at 3.703703704 ug/mL [9]: 35.1%
IL-2, % of BMS, at 11.11111111 ug/mL [9]: 45.5%
IL-2, % of BMS, at 33.33333333 ug/mL [9]: 61.7%
IL-2, % of BMS, at 100 ug/mL [9]: 60.9%
RU [10]: -5.3 RU
RU [11]: -8.5 RU
RU [12]: -9.9 RU
RU [13]: -13.4 RU
IL-2, % of BMS, at 0.005080526 ug/mL [14]: 7.39%
IL-2, % of BMS, at 0.015241579 ug/mL [14]: 10.9%
IL-2, % of BMS, at 0.045724737 ug/mL [14]: 12.9%
IL-2, % of BMS, at 0.137174211 ug/mL [14]: 5.27%
IL-2, % of BMS, at 0.411522634 ug/mL [14]: 6.53%
IL-2, % of BMS, at 1.234567901 ug/mL [14]: 15.5%
IL-2, % of BMS, at 3.703703704 ug/mL [14]: 35.1%
IL-2, % of BMS, at 11.11111111 ug/mL [14]: 45.5%
IL-2, % of BMS, at 33.33333333 ug/mL [14]: 61.7%
IL-2, % of BMS, at 100 ug/mL [14]: 60.9%
RU [15]: -9.5 RU
